The record followed here is patent US20220403025A1.

To fix the notation:
B1: 1251_P02_G10 (IgG1) (antibody, V domains shown)
VH: EVQLVESGGGLVQPGGSLRLSCAASGFTFSDYYMSWIRQAPGKGLEWVSYISSSGSTIYYADSVKGRFTISRDNAKNSLYLQMNSLRAEDTAVYYCARHSWNDAFDIWGRGTLVTVSS
VL: DIQMTQSPSSLSASVGDRVTITCRASQSISSHLNWYQQKPGKAPKLLIYAASSLQSGVPSRFSASGSGTDFTLTISSLQPEDFATYYCQQSYSTLLTFGGGTKVEIKR
B2: 1245_P02_F07 (scFv) (scFv)
scFv: QVQLQQSGPGLVKPSQTLSLTCVISGDSVSSNSAAWNWIRQSPSRGLEWLGRTYYRSKWYNDYAVSVKSRITINPDTSKNQFSLQLNSVTPEDTAVYYCARDYYYSMDVWGQGTMVTVSSGGGGSGGGGSGGGASDIQMTQSPSTLSASVGDRVTITCRASQSISSWLAWYQQKPGKAPKLLIYDASSLESGVPLRFSGSGSGTEFTLTISSLQPDDFATYYCQQSHSHPPTFGPGTKVDIK
B3: 1141_P01_E01 (scFv) (scFv)
scFv: QVQLVQSGAEVKKPGESLKISCKGSGYSFTSYWIGWVRQMPGKGLEWMGIIYPGDSDTRYSPSFQGQVTISADKSISTAYLQWSSLKASDTAMYYCARHQVDTRTADYWGQGTLVTVSSGGGGSGGGGSGGGASQSALTQPASVSGSPGQSVTISCTGTRSDVGGYNYVSWYQHHPGKAPKLMIYEVSNRPSGVSNRFSGSKSGNTASLTISGLQAEDEADYYCSSYTSTSTLVFGGGTKLTVL
B4: 1251_P02_G10 (scFv) (scFv)
scFv: EVQLVESGGGLVQPGGSLRLSCAASGFTFSDYYMSWIRQAPGKGLEWVSYISSSGSTIYYADSVKGRFTISRDNAKNSLYLQMNSLRAEDTAVYYCARHSWNDAFDIWGRGTLVTVSSGGGGSGGGGSGGGASDIQMTQSPSSLSASVGDRVTITCRASQSISSHLNWYQQKPGKAPKLLIYAASSLQSGVPSRFSASGSGTDFTLTISSLQPEDFATYYCQQSYSTLLTFGGGTKVEIK
B5: 1245_P02_G04 (scFv) (scFv)
scFv: QVQLQQSGPGLVKPSQTLSLTCAISGDSVSSKSAAWNWIRQSPSRGLEWLGRTYYRSKWSTDYAASVKSRITINPDTSKNQLSLQLNSVTPEDTAVYYCARTWSGYVDVWGQGTLVTVSSGGGGSGGGGSGGGASDIQMTQSPPALSASVGDRVTITCRASQDINDWLAWYQHKPGKAPKLLIYDASSLESGVPSRFSGSGSGTEFTLTISSLQPDDFATYYCQQSYSTPQVTFGQGTRLEIK
B6: 1139_P01_E04 (scFv) (scFv)
scFv: QVQLQQSGPGLVKPSQTLSLTCAISGDSVSSNSAAWNWIRQSPSRGLEWLGRTYYRSKWYNDYAVSVRSRITINPDTSKNQFSLQLNSVTPEDTAVYYCARSWNDAFDIWGQGTTVTVSSGGGGSGGGGSGGGASDIVMTQSPSTLSASIGDRVTITCRAGQSISTWLAWYQQKPGKAPKLLIYDASSLESGVPLRFSGSGSGTDFTLTISSLQPEDFATYYCQQSYSTPLTFGGGTKVEIK
B7: 1251_P02_C05 (scFv) (scFv)
scFv: EVQLLESGGGLVQPGGSLRLSCAASGFTFSSYAMSWVRQAPGKGLEWVSAISGGGGTTYSSDSVKGRFTISRDNSKNTLYLQMNSLRAEDTAVYYCARDSGVAFDIWGQGTLVTVSSGGGGSGGGGSGGGASDIQMTQSPSFLSASVGDRVTITCRASQNIRTWLAWYQQKPGRAPKLLIYDASSLESGVPSRFSGSGSGTDFTLTISSLQPEDFATYYCQQFKRYPPTFGLGTKVEIK
B8: 1252_P01_C08 (scFv) (scFv)
scFv: EVQLLESGGGLVQPGRSLRLSCAASGFTVSSNYMSWVRQAPGKGLEWVSVIYSGGSTYYADSVKGRFTISRDNSKNTLYLQMNSLRAEDTAVYYCASPIELGAFDIWGQGTLVTVSSGGGGSGGGGSGGGASSYELTQPPSVSVAPGKTARITCGGNNIGSQSVHWYQQKPGQAPMLVIYYDSDRPSGIPERFSGSNSGNTATLTISRVEAGDEADYYCQVWDSSSDHVVFGGGTKLTVL
B9: 1245_P01_G09 (scFv) (scFv)
scFv: QVQLQQSGPGLVKPSQTLSLTCAISGDSVSSNSAAWNWIRQSPSRGLEWLGRTYYGSKWYNEYALSVKSRIIINPDTSKNQFSLQLNSVTPEDTAVYYCARDYYYSMDVWGQGTLVTVSSGGGGSGGGGSGGGASDIVMTQSPSTLSASIGDRVTITCRAGQSISTWLAWYQQKPGKAPKLLIYDASSLESGVPLRFSGSGSGTEFTLAISSLQPDDFATYYCQQSYSTPVTFGQGTKVEIK
B10: 1245_P01_E07 (scFv) (scFv)
scFv: QVQLVESGGGLVKPGGSLRLSCAASGFTFSDYYMSWIRQAPGKGLEWVSYISSSGSTIYYADSVKGRFTISRDNAKNSLYLQMNSLRAEDTAVYYCARVDYADAFDIWGQGTLVTVSSGGGGSGGGGSGGGASDIQMTQSPSSLSASVGDRVTIACRAGQSIGTYLNWYQQKPGKAPKLLIYVASSLQSGVPSRFSGSGSGTEFTLTISSLQPEDFATYYCQQSYSTLLTFGRGTKVEIK
B11: 1245_P02_G04 (IgG1, made in HEK) (antibody, V domains shown)
VH: QVQLQQSGPGLVKPSQTLSLTCAISGDSVSSKSAAWNWIRQSPSRGLEWLGRTYYRSKWSTDYAASVKSRITINPDTSKNQLSLQLNSVTPEDTAVYYCARTWSGYVDVWGQGTLVTVSS
VL: DIQMTQSPPALSASVGDRVTITCRASQDINDWLAWYQHKPGKAPKLLIYDASSLESGVPSRFSGSGSGTEFTLTISSLQPDDFATYYCQQSYSTPQVTFGQGTRLEIK
B12: AD3 (variant G04, made in CHO) (antibody, V domains shown)
VH: EVQLQQSGPGLVKPSQTLSLTCAISGDSVSSKSAAWNWIRQSPSRGLEWLGRTYYRSKWSTDYAASVKSRITINPDTSKNQLSLQLNSVTPEDTAVYYCARTWSGYVDVWGQGTLVTVSS
VL: DIQMTQSPPALSASVGDRVTITCRASQDINDWLAWYQHKPGKAPKLLIYDASSLESGVPSRFSGSGSGTEFTLTISSLQPDDFATYYCQQSYSTPQVTFGQGTRLEIK
B13: AD4 (hinge modified AD3, made in CHO) (antibody, V domains shown)
VH: EVQLQQSGPGLVKPSQTLSLTCAISGDSVSSKSAAWNWIRQSPSRGLEWLGRTYYRSKWSTDYAASVKSRITINPDTSKNQLSLQLNSVTPEDTAVYYCARTWSGYVDVWGQGTLVTVSS
VL: DIQMTQSPPALSASVGDRVTITCRASQDINDWLAWYQHKPGKAPKLLIYDASSLESGVPSRFSGSGSGTEFTLTISSLQPDDFATYYCQQSYSTPQVTFGQGTRLEIK
B14: AD3gly (defucosylated AD3 made in engineered CHO) (antibody, V domains shown)
VH: EVQLQQSGPGLVKPSQTLSLTCAISGDSVSSKSAAWNWIRQSPSRGLEWLGRTYYRSKWSTDYAASVKSRITINPDTSKNQLSLQLNSVTPEDTAVYYCARTWSGYVDVWGQGTLVTVSS
VL: DIQMTQSPPALSASVGDRVTITCRASQDINDWLAWYQHKPGKAPKLLIYDASSLESGVPSRFSGSGSGTEFTLTISSLQPDDFATYYCQQSYSTPQVTFGQGTRLEIK

L1 (DV1-GV4) antigen: soluble heterodimeric γδ TCR in leucine zipper format (TRDV1/TRGV4) (human), sequence (main, as listed by the source): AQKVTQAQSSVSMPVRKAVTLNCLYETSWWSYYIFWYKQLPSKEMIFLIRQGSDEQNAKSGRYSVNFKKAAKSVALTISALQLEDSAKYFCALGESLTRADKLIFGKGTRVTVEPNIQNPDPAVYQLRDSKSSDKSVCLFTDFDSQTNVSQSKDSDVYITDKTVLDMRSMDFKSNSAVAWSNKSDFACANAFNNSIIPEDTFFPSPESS

One test addresses L1 (DV1-GV4) antigen: soluble heterodimeric γδ TCR in leucine zipper format (TRDV1/TRGV4) (human). Briefly: SPR (MASS-2), IgG captured via protein G, L1 as analyte, steady-state 1:1 fit.
Broadly, the Kd is the constant that tells how readily two partners part at equilibrium. Consider B1, for which the Kd was 829 nM.

For another test the target is unchanged. Nature of the test: DELFIA affinity ranking with 100 nM biotinylated L1.
Molecule B2 displayed a DELFIA signal, 100 nM L1 of 10400.
Same read-out and setting: next, B3: 137000; B4: 17100.
Molecule B5 came in with a DELFIA signal, 100 nM L1 of 5900.
B6 displayed a DELFIA signal, 100 nM L1 of 23800.
Same read-out and setting: for B7 the value was 65300; for B8, 1980; for B9, 18400.
Molecule B10 returned a DELFIA signal, 100 nM L1 of 163000.

For the next test the target is unchanged. Nature of the test: ELISA (DELFIA, time-resolved fluorometry) on antigen L1, titration of the mAb. A general note: An ELISA detects its analyte on a solid surface through an enzyme-linked reagent.
For orientation: EC50 (read off the curve) means the concentration giving half of the maximal effect. A higher EC50 (read off the curve) goes with a need for much substance. B11 showed an EC50 (read off the curve) of 0.07 µg/mL.
Molecule B12 had an EC50 (read off the curve) of 0.07 µg/mL.
B13: the EC50 (read off the curve) turned out to be 0.07 µg/mL.
In turn, B14 returned an EC50 (read off the curve) of 0.07 µg/mL.

The target of the next test is Vδ1 γδ T cell receptor on skin-derived γδ T cells (human). Nature of the test: cell-based or functional assay.
Regarding B1, the TCR downregulation (EC50 µg/ml - 3 donors) was 0.849 µg/mL.
